US6962972B2, “Derivatization of proteins” (Lipoxen Technologies Limited, priority 2000, dated 2005)

Legend:
[1] = Hanes Woolf plot at different concentrations of hydrogen peroxide (Km); type: biochemical; conditions: substrate hydrogen peroxide, read-out: Km (substrate concentration at which the reaction rate is half of its maximal value)
Source text: (§1) Catalase is a tetrameric haemprotein that catalyses the degradation of hydrogen peroxide to oxygen and water. The reaction can be used to determine enzyme activity. The reaction is a first order reaction, whereby the amount of peroxide substrate decomposed is directly proportional to the concentration of both substrate and enzyme. Provided the concentration of substrate is constant between experiments, any difference in decomposition rate will therefore be a function of enzyme activity present. In the present examples, the drop in absorbance hydrogen peroxide at […] from 0.450 to 0.400, corresponding to the decomposition of 3.45 μ moles of hydrogen peroxide in a cuvette having a reaction volume of 3 ml, is determined.
Native catalase, catalase derivitised using 1×10^−3M SDS, for a reaction period of 48 hours, and catalase derivatised using the same reaction time but in the absence of SDS, were compared at different concentrations of hydrogen peroxide to form Hanes Woolf plot.

[2] = Catalase determination (enzyme activity: time for hydrogen peroxide absorbance to drop from 0.450 to 0.400); type: biochemical; conditions: for Time for Δ Ab: absorbance drop 0.45 to 0.40
Source text: as §1
The derivatised catalase compounds were also tested against native catalase for their enzyme activity. The results for catalase alone in FIG. 3 show the effect of subjecting catalase to the reaction conditions but without the addition of activated colominic acid. […] The […] is greater when the polysialylation takes place in the presence of SDS.
The derivatised catalase products were assessed for their catalase activity using the general test described above. The times taken for the enzymes to reduce the absorbance from 0.45 to 0.40 are shown in table 1 as compared to native catalase.

B1: native catalase: tetrameric haemprotein enzyme from Sigma, used as model protein, underivatised (protein, UniProt P00432 2-527, looked up)
Catalase: ADNRDPASDQMKHWKEQRAAQKPDVLTTGGGNPVGDKLNSLTVGPRGPLLVQDVVFTDEMAHFDRERIPERVVHAKGAGAFGYFEVTHDITRYSKAKVFEHIGKRTPIAVRFSTVAGESGSADTVRDPRGFAVKFYTEDGNWDLVGNNTPIFFIRDALLFPSFIHSQKRNPQTHLKDPDMVWDFWSLRPESLHQVSFLFSDRGIPDGHRHMNGYGSHTFKLVNANGEAVYCKFHYKTDQGIKNLSVEDAARLAHEDPDYGLRDLFNAIATGNYPSWTLYIQVMTFSEAEIFPFNPFDLTKVWPHGDYPLIPVGKLVLNRNPVNYFAEVEQLAFDPSNMPPGIEPSPDKMLQGRLFAYPDTHRHRLGPNYLQIPVNCPYRARVANYQRDGPMCMMDNQGGAPNYYPNSFSAPEHQPSALEHRTHFSGDVQRFNSANDDNVTQVRTFYLKVLNEEQRKRLCENIAGHLKDAQLFIQKKAVKNFSDVHPEYGSRIQALLDKYNEEKPKNAVHTYVQHGSHLSAREKANL
[1]
  Km: 84 mM
[2]; Concentration SDS 0 %
  Time for Δ Ab: 4 min
[2]; after the derivatisation reaction conditions, up to 48 hours at 35 to 40° C.
  enzyme activity (FIG. 3): catalase activity is lost under those conditions

B2: derivatised catalase: catalase derivatised with activated colominic acid for 48 hours in the presence of SDS at 0.01, 0.02 or 0.029 % by weight (conjugate, UniProt P00432 2-527, looked up)
Catalase: ADNRDPASDQMKHWKEQRAAQKPDVLTTGGGNPVGDKLNSLTVGPRGPLLVQDVVFTDEMAHFDRERIPERVVHAKGAGAFGYFEVTHDITRYSKAKVFEHIGKRTPIAVRFSTVAGESGSADTVRDPRGFAVKFYTEDGNWDLVGNNTPIFFIRDALLFPSFIHSQKRNPQTHLKDPDMVWDFWSLRPESLHQVSFLFSDRGIPDGHRHMNGYGSHTFKLVNANGEAVYCKFHYKTDQGIKNLSVEDAARLAHEDPDYGLRDLFNAIATGNYPSWTLYIQVMTFSEAEIFPFNPFDLTKVWPHGDYPLIPVGKLVLNRNPVNYFAEVEQLAFDPSNMPPGIEPSPDKMLQGRLFAYPDTHRHRLGPNYLQIPVNCPYRARVANYQRDGPMCMMDNQGGAPNYYPNSFSAPEHQPSALEHRTHFSGDVQRFNSANDDNVTQVRTFYLKVLNEEQRKRLCENIAGHLKDAQLFIQKKAVKNFSDVHPEYGSRIQALLDKYNEEKPKNAVHTYVQHGSHLSAREKANL
modifications: colominic acid conjugate
[2]; SDS 0.01 % in derivatisation, 48 hours
  Time for Δ Ab: 13 min
[2]; SDS 0.02 % in derivatisation, 48 hours
  Time for Δ Ab: 21 min
[2]; SDS 0.029 % (1×10^−3M) in derivatisation, 48 hours
  Time for Δ Ab: 44 min
